In patent US20200164032A1:

Key:
[1] = target: CXCL10 (as tested against T17; species not stated)
[2] = target: CXCL12 (hSDF-1b) (Homo sapiens) (UniProt P48061)
[3] = target: XCL1 (as tested against T17; species not stated)
[4] = target: human CCL2 (human) (UniProt P13500); assay: SPR, T17 amine-coupled to CM5 chip
[5] = target: murine CCL2 (mouse) (UniProt P10148); assay: SPR, T17 amine-coupled to CM5 chip
[6] = target: murine CCL3 (mouse) (UniProt P10855); assay: SPR, T17 amine-coupled to CM5 chip
murine CCL3 (mouse), sequence (P10855 24-92 limits assumed): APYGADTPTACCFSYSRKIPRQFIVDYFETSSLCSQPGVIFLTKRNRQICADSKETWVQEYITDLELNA

[7] = target: CCL9 (UniProt P51670); assay: SPR (Biacore T-100), T17 on CM5 chip; t1/2
CCL9, sequence (P51670 22-122 limits assumed): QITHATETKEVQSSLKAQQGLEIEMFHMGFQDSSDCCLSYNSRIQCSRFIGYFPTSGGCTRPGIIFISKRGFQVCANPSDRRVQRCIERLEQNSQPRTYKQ

[8] = target: human CCL2 (human) (UniProt P13500); assay: SPR (Biacore T-100), T17 on CM5 chip; t1/2
[9] = target: murine CCL11 (mouse) (UniProt P48298); assay: SPR (Biacore T-100), T17 on CM5 chip; t1/2
murine CCL11 (mouse), sequence (P48298 24-97 limits assumed): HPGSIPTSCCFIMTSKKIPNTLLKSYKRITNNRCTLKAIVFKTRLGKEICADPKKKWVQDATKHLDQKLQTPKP

[10] = target: murine CCL12 (mouse) (UniProt Q62401); assay: SPR (Biacore T-100), T17 on CM5 chip; t1/2
murine CCL12 (mouse), sequence (Q62401 23-104 limits assumed): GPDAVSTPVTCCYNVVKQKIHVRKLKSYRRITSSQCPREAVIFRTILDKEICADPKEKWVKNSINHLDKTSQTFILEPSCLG

[11] = target: murine CCL2 (mouse) (UniProt P10148); assay: SPR (Biacore T-100), T17 on CM5 chip; t1/2
[12] = target: murine CCL20 (mouse) (UniProt O89093); assay: SPR (Biacore T-100), T17 on CM5 chip; t1/2
murine CCL20 (mouse), sequence (O89093 28-97 limits assumed): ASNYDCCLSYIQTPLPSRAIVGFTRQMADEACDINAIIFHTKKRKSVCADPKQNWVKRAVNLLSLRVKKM

[13] = target: murine CCL21 (mouse) (UniProt P84444); assay: SPR (Biacore T-100), T17 on CM5 chip; t1/2
murine CCL21 (mouse), sequence (P84444 24-133): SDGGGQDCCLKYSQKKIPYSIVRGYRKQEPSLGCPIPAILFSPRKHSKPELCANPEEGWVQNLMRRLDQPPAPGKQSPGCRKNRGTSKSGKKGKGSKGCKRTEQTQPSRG

[14] = target: murine CCL24 (mouse) (UniProt Q9JKC0); assay: SPR (Biacore T-100), T17 on CM5 chip; t1/2
murine CCL24 (mouse), sequence (Q9JKC0 27-119 limits assumed): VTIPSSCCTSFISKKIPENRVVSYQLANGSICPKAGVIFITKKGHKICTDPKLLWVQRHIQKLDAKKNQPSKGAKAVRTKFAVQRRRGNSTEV

[15] = target: murine CCL3 (mouse) (UniProt P10855); assay: SPR (Biacore T-100), T17 on CM5 chip; t1/2
[16] = target: murine CCL4 (mouse) (UniProt P14097); assay: SPR (Biacore T-100), T17 on CM5 chip; t1/2
murine CCL4 (mouse), sequence (P14097 24-92 limits assumed): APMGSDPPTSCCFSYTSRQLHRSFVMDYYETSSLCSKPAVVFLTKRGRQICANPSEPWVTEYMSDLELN

[17] = target: murine CCL5 (mouse) (UniProt P30882); assay: SPR (Biacore T-100), T17 on CM5 chip; t1/2
murine CCL5 (mouse), sequence (P30882 24-91 limits assumed): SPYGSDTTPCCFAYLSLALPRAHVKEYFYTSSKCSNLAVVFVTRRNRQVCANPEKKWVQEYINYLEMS

[18] = target: murine CCL8 (mouse) (UniProt Q9Z121); assay: SPR (Biacore T-100), T17 on CM5 chip; t1/2
murine CCL8 (mouse), sequence (Q9Z121 24-97 limits assumed): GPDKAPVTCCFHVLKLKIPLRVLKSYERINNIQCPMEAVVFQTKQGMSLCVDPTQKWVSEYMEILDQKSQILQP

[19] = target: CCL9 (UniProt P51670); assay: SPR (Biacore T-100), T17 on CM5 chip; KD,eq
[20] = target: human CCL2 (human) (UniProt P13500); assay: SPR (Biacore T-100), T17 on CM5 chip; KD,eq
[21] = target: murine CCL11 (mouse) (UniProt P48298); assay: SPR (Biacore T-100), T17 on CM5 chip; KD,eq
[22] = target: murine CCL12 (mouse) (UniProt Q62401); assay: SPR (Biacore T-100), T17 on CM5 chip; KD,eq
[23] = target: murine CCL2 (mouse) (UniProt P10148); assay: SPR (Biacore T-100), T17 on CM5 chip; KD,eq
[24] = target: murine CCL20 (mouse) (UniProt O89093); assay: SPR (Biacore T-100), T17 on CM5 chip; KD,eq
[25] = target: murine CCL21 (mouse) (UniProt P84444); assay: SPR (Biacore T-100), T17 on CM5 chip; KD,eq
[26] = target: murine CCL24 (mouse) (UniProt Q9JKC0); assay: SPR (Biacore T-100), T17 on CM5 chip; KD,eq
[27] = target: murine CCL3 (mouse) (UniProt P10855); assay: SPR (Biacore T-100), T17 on CM5 chip; KD,eq
[28] = target: murine CCL4 (mouse) (UniProt P14097); assay: SPR (Biacore T-100), T17 on CM5 chip; KD,eq
[29] = target: murine CCL5 (mouse) (UniProt P30882); assay: SPR (Biacore T-100), T17 on CM5 chip; KD,eq
[30] = target: murine CCL8 (mouse) (UniProt Q9Z121); assay: SPR (Biacore T-100), T17 on CM5 chip; KD,eq
[31] = target: CCL9 (UniProt P51670); assay: SPR (Biacore T-100), T17 on CM5 chip; KD,kin
[32] = target: human CCL2 (human) (UniProt P13500); assay: SPR (Biacore T-100), T17 on CM5 chip; KD,kin
[33] = target: murine CCL11 (mouse) (UniProt P48298); assay: SPR (Biacore T-100), T17 on CM5 chip; KD,kin
[34] = target: murine CCL12 (mouse) (UniProt Q62401); assay: SPR (Biacore T-100), T17 on CM5 chip; KD,kin
[35] = target: murine CCL2 (mouse) (UniProt P10148); assay: SPR (Biacore T-100), T17 on CM5 chip; KD,kin
[36] = target: murine CCL20 (mouse) (UniProt O89093); assay: SPR (Biacore T-100), T17 on CM5 chip; KD,kin
[37] = target: murine CCL21 (mouse) (UniProt P84444); assay: SPR (Biacore T-100), T17 on CM5 chip; KD,kin
[38] = target: murine CCL24 (mouse) (UniProt Q9JKC0); assay: SPR (Biacore T-100), T17 on CM5 chip; KD,kin
[39] = target: murine CCL3 (mouse) (UniProt P10855); assay: SPR (Biacore T-100), T17 on CM5 chip; KD,kin
[40] = target: murine CCL4 (mouse) (UniProt P14097); assay: SPR (Biacore T-100), T17 on CM5 chip; KD,kin
[41] = target: murine CCL5 (mouse) (UniProt P30882); assay: SPR (Biacore T-100), T17 on CM5 chip; KD,kin
[42] = target: murine CCL8 (mouse) (UniProt Q9Z121); assay: SPR (Biacore T-100), T17 on CM5 chip; KD,kin
[43] = target: CCL9 (UniProt P51670); assay: SPR (Biacore T-100), T17 on CM5 chip; global 1:1 mass transport fit
[44] = target: human CCL2 (human) (UniProt P13500); assay: as above
[45] = target: murine CCL11 (mouse) (UniProt P48298); assay: as above
[46] = target: murine CCL12 (mouse) (UniProt Q62401); assay: as above
[47] = target: murine CCL2 (mouse) (UniProt P10148); assay: as above
[48] = target: murine CCL20 (mouse) (UniProt O89093); assay: as above
[49] = target: murine CCL21 (mouse) (UniProt P84444); assay: as above
[50] = target: murine CCL24 (mouse) (UniProt Q9JKC0); assay: as above
[51] = target: murine CCL3 (mouse) (UniProt P10855); assay: as above
[52] = target: murine CCL4 (mouse) (UniProt P14097); assay: as above
[53] = target: murine CCL5 (mouse) (UniProt P30882); assay: as above
[54] = target: murine CCL8 (mouse) (UniProt Q9Z121); assay: as above
[55] = target: CXCL10 (as tested against T17; species not stated); assay: BLI (Octet Red), biotinylated T17 on streptavidin biosensors; t1/2
[56] = target: CXCL12 (hSDF-1a) (Homo sapiens) (UniProt P48061); assay: as above
CXCL12 (hSDF-1a) (Homo sapiens), sequence (P48061 22-89 limits assumed): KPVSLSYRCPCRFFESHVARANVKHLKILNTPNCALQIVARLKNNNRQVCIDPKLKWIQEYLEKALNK

[57] = target: CXCL12 (hSDF-1b) (Homo sapiens) (UniProt P48061); assay: as above
[58] = target: XCL1 (as tested against T17; species not stated); assay: as above
[59] = target: CXCL10 (as tested against T17; species not stated); assay: BLI (Octet Red), biotinylated T17 on streptavidin biosensors; KD,eq
[60] = target: CXCL12 (hSDF-1b) (Homo sapiens) (UniProt P48061); assay: as above
[61] = target: XCL1 (as tested against T17; species not stated); assay: as above
[62] = target: CXCL10 (as tested against T17; species not stated); assay: BLI (Octet Red), biotinylated T17 on streptavidin biosensors; KD,kin
[63] = target: CXCL12 (hSDF-1b) (Homo sapiens) (UniProt P48061); assay: as above
[64] = target: XCL1 (as tested against T17; species not stated); assay: as above

human CCL2 (human), sequence (P13500 24-99 limits assumed): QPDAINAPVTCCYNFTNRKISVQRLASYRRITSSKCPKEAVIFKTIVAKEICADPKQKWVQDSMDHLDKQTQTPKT
CXCL12 (hSDF-1b) (Homo sapiens), sequence (P48061 22-93): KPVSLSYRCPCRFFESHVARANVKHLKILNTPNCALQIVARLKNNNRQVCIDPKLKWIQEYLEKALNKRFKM
murine CCL2 (mouse), sequence (P10148 24-148 limits assumed): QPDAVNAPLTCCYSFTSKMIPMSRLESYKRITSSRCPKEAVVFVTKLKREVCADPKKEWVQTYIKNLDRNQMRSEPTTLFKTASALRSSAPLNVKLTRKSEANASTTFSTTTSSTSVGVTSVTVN

In the case of “T17 chemokine decoy receptor of Rodent herpesvirus Texas (RHVT), C-terminal His tag (6 histidine residues) fusion”, the koff [1] is reported as 0.0174 s⁻¹, the kon [1] is reported as 812000 M⁻¹ s⁻¹ and the koff [2] is reported as 0.0173 s⁻¹. It also gave a kon [2] of 436000 M⁻¹ s⁻¹, a koff [3] of 0.0127 s⁻¹ and a kon [3] of 1.23e+06 M⁻¹ s⁻¹. For the same substance, the complex half-life [4] was 26 s, the complex half-life [5] was 225 s and the complex half-life (t1/2) [6] was 90 s. It also gave a t1/2 [7] of 23.3 s, a t1/2 [8] of 26.2 s and a t1/2 [9] of 109 s. The t1/2 [10] was 17.5 s, the t1/2 [11] was 225 s and the t1/2 [12] was 36.1 s. It also gave a t1/2 [13] of 52.5 s, a t1/2 [14] of 131 s and a t1/2 [15] of 90.7 s. It also gave a t1/2 [16] of 32.7 s, a t1/2 [17] of 196 s and a t1/2 [18] of 33.9 s. The Kd [19] was 0.0391 µM, the Kd [20] was 0.0149 µM and the Kd [21] was 0.0335 µM. The Kd [22] was 0.0123 µM, the Kd [23] was 0.0389 µM and the Kd [24] was 0.0234 µM. It also gave a Kd [25] of 0.0223 µM, a Kd [26] of 0.0119 µM and a Kd [27] of 0.00676 µM. The Kd [28] was 0.00474 µM, the Kd [29] was 0.00415 µM and the Kd [30] was 0.00379 µM. It also gave a Kd [31] of 0.018 µM, a Kd [32] of 0.00176 µM and a Kd [33] of 0.00037 µM. For the same substance, the Kd [34] was 0.00254 µM, the Kd [35] was 0.00715 µM and the Kd [36] was 0.00562 µM. The Kd [37] was 0.0155 µM, the Kd [38] was 0.0105 µM and the Kd [39] was 0.00325 µM. The Kd [40] was 0.00016 µM, the Kd [41] was 0.00147 µM and the Kd [42] was 0.00123 µM. The koff [43] was 0.0298 s⁻¹, the kon [43] was 1.65e+06 M⁻¹ s⁻¹ and the koff [44] was 0.0265 s⁻¹. The kon [44] was 1.51e+07 M⁻¹ s⁻¹, the koff [45] was 0.00637 s⁻¹ and the kon [45] was 1.73e+07 M⁻¹ s⁻¹. The koff [46] was 0.0396 s⁻¹, the kon [46] was 1.56e+07 M⁻¹ s⁻¹ and the koff [47] was 0.00308 s⁻¹. For the same substance, the kon [47] was 431000 M⁻¹ s⁻¹, the koff [48] was 0.0192 s⁻¹ and the kon [48] was 3.42e+06 M⁻¹ s⁻¹. It also gave a koff [49] of 0.0132 s⁻¹, a kon [49] of 851000 M⁻¹ s⁻¹ and a koff [50] of 0.0053 s⁻¹. It also gave a kon [50] of 506000 M⁻¹ s⁻¹, a koff [51] of 0.0076 s⁻¹ and a kon [51] of 2.35e+06 M⁻¹ s⁻¹. It also gave a koff [52] of 0.0212 s⁻¹, a kon [52] of 8.12e+07 M⁻¹ s⁻¹ and a koff [53] of 0.0035 s⁻¹. It also gave a kon [53] of 2.41e+06 M⁻¹ s⁻¹, a koff [54] of 0.0205 s⁻¹ and a kon [54] of 1.66e+07 M⁻¹ s⁻¹. It also gave a t1/2 [55] of 39.8 s, a t1/2 [56] of 20.2 s and a t1/2 [57] of 40.1 s. For the same substance, the t1/2 [58] was 54.6 s, the Kd [59] was 0.0244 µM and the Kd [60] was 0.0442 µM. It also gave a Kd [61] of 0.0192 µM, a Kd [62] of 0.0214 µM and a Kd [63] of 0.0396 µM. The Kd [64] was 0.0104 µM.
